{"source": "the DeepSol protein solubility set"}
{"assay": "soluble on expression in E. coli; label from the status in PepcDB or PDB records"}
{"sequence": "WGTIPGQNFIYAHLNRVIKKYDLDMIYVSGPGHGGQVMVSNSYLDGTYSEVYPNVSRDLNGLKKLCKQFSFPGGISSHMAPETPGSINEGGELGYSLAHSFGAVFDNPDLITACVVGDGEAETGPLATSWQANKFLNPVTDGAVLPILHLNGYKISNPTVLSRIPKDELEKFFEGNGWKPYFVEGEDPETMHKLMAETLDIVTEEILNIQKNARENNDCSRPKWPMIVLRTPKGWTGPKFVDGVPNEGSFRAHQVPLAVDRYHTENLDQLEEWLKSYKPEELFDENYRLIPELEELTPKGNKRMAANLH", "soluble on expression in E. coli": "not soluble"}
{"sequence": "MSLIDILVVDDDVAVCAALRLVLKRAGYNPVIANSPDEALSIMRNPDGGCKPAVILMDMNFSLSTSGREGLELLEKMQIFTSCPVILMTAWASIPLAVEGMRLGAFDFIGKPWDNDRLLRTIDTALHLAAPSAVANPSEQSDRDTARQPKATVQENDPCAHIIGRSDAICKIKERIRRIAPTHASVLITGESGTGKELIAEALHRGSKRASAPFVKVNLGGIPESLFESELFGHKKGAFTNAFSDRKGRFELADGGTIFLDEIGELPVGNQVKLLRVLQEQTFEPLGESVSHRVDIRVVSATNASLERMVAEGRFREDLYYRINLIHLHLPPLRERQEDIQLLVEAFSEAFAQSNGLPHAVWSAEAMRRICAMPLPGNVRELKNVVERTLLLSGSREISARDVADEGHHHHHH", "soluble on expression in E. coli": "soluble"}
{"sequence": "SESVHPGNHNLDTLSHSQISKEEETFPSHQLYTFQAPWLVYGLAWCNRVNSPYSLALSSFIESCNNKIILVELNDKTEDFQQVVQVDHPYPASKVAFIPDYSGTRPQLLATSGDALRIWEWSNDNLKSKALLSTNPESEYCAPLTSFDWCEVNPATLCTSSVDTTCTIWDVETQQAKTQLIAHDKEVYDVAFQTGTDKIFASAGADASVRCFDLRNLETSTILYEIPDDSTPILRIGWNKKEPNYMAALVMDSSKFLLLDIRVPSLPVAEMEHKLTNHKRHKSVNAIHWAPHSSSHICSAGDDCYTLIWDISAIPRPIEEPILSYQSDREVNNLQWSAADPDWIAIAAGNKMQILRV", "soluble on expression in E. coli": "soluble"}
{"sequence": "MGSDKIHHHHHHMDRIQEMTLFAALAGQTSFTGVARHVGLSTATVTRAVASLESRLGILLVVRTTRNMRLTKAGQRFAEDCRRLLADLSEAENAAAGVHALPAGTLTVTAPQMFGALHVTPVLTRFLSEYPAVDIRAILVDRVVSMLDEGVDVAVRIGALRDSSLTAIRVGSVRRMVCASPVYLTQHGTPRHPDDLQQHATISTSAPERPPHWAFRVDDQDYSVNVASRLSLTSFQASINAALQHWGLTQVPHYQIREHLHNGRLVCVLEDFEIAPEPVHVVYSEGRRGSSRVRSFVDFCVSALREDLQFEAAG", "soluble on expression in E. coli": "not soluble"}
{"sequence": "MDDLSPDSALPPAGSAQDNDAPRQLVVCIDGTSNRFGDQPTNVVRLYRSLSRDPRRVLAYYDQGVGTFGLKETLFEWQKFPSRIAGLAFGWGLKRNVEGAYRFLAEHYRPGDQIFLFGFSRGAYAVRVLAAMLRAVGLIDAHQPHLFDYAWTLLTTRMPPRDEDKRAGTRRRGPDFGLLGRFRKVFGRQVKVHFLGLFDTVTSVGWVYDPLTVPYSSNNEMVDVVRQALAIDECRCFFRQNLWFGEKDRKSDVLQVWFPGMHSDVGGGYAPKDSRLALVAFTWMLGEALEAGLHVDPARSRDQLRARSKQGPDPTAPILPVMTRPWRLAEWLPLLVWDRRSGNRAWRWSRGRPRSRPLEPVGQETRVKLHRSVQRRLDECPDYRPCNLPALERCDLIDDSPLLDGYRLEHHHHHH", "soluble on expression in E. coli": "not soluble"}
{"sequence": "MSLGIRGLDLSDLFVSGASYKRLGSEEMMRSTFQKLDREIAAIFLGLSDGTISKAIEYSKVRTAFDHPLKDYSPIFDDLVSLKMEIDVLRFYLYGSGDEYSRALIKIKAKDLSLRATRVSLQTHGGYGYIHDFGIEKYYRDAMALSVYFGQDKYENMVLSDHIFGEAGGEGHHHHHH", "soluble on expression in E. coli": "not soluble"}
{"sequence": "MGNELIVSVQNRIQEMQHGEGLRLPTGYSVGNALNSAYLILSDNSKGKSLLEKCHPTSVSKALLNMAIQGLSPAKNQCYFVPYGDQCTLMRSYFGSVSILERLSNVKKVHAEVIFEGDEFEIGSEDGRTVVTNFKPSFLNRDNPIIGAFAWVEQTDGIKVYTIMTKKEIYKSWSKAKTKNVQNDYPQEMAKRTVLSRAAKMFINSSSDNDLLVKAINETTEDEYDNNQPRKDITPNPPNIEKLEKSIFNQDENKKIAQDMIDSIDLNQADKDLQEELNIEFPDPSKNYLATGEVNGDVENEDGPYPF", "soluble on expression in E. coli": "not soluble"}
{"sequence": "MAHHHHHHMGWFRSSASPEAGTATAEAPAAAAEHGSQHRQPQPEANSPAPLTEAEQLDLLVAGARLDDTEAQDTARFLGSNRRHMYADGLLSCAAYTFSGLHHIQGQSSALTLLTMWTVGTTFLVDVAERKYLQESLQGTLRTAKTTSEAEKPLLLDQPPHNATPASTPRKAAVVPAMPTSSDSLSSAIKKPAPRDKEKLAEQQRKVFLTQAVASWLWMLASFQQFKVHKRLKWCGYSSWMGLGCAGYYTTRHLYNLLVK", "soluble on expression in E. coli": "soluble"}
{"sequence": "MGSDKIHHHHHHMNYLRLNNITKRFGSFIANDNINLSVASGSIHAILGENGAGKSTLMNIISGLYQPDAGEIYLQEQPIKITSPNEAIKLGIGMIYQHFMLIPKLTVTENIILGIEKTWRLNLEDKQQKIAALSQAYGLEIDPTAKVENLSVGAQQRVEILKVLYRQAKLLILDEPTAVLTPPEVESLIAILRQLASAGNTIIFISHKLEEVMNLCDSVTVLRQGKVVATTSTEAATSQQLATLMVGREVALQLNKSPTLPGEIILSVQNLQVADERNILAVNNVSFELRAGEILGIAGVDGNGQRELADAIAFVRTIKQGKIEFTPKHSSVGYIPEDRQTMGLVLQFSIAQNLILKAFKYLPFCRRFLLQQEAIANRAQAAMQEFDIRASGKDILVSQLSGGNQQKVVLARELALTPALIIAMQPTRGLDVGATIAVQSRILTERDRGAAILYISTELEEVMAMSDRIAVIYRGEFVAILDAATAKVEEIGLLMAGGIN", "soluble on expression in E. coli": "not soluble"}
{"sequence": "MGSDKIHHHHHHMYEHQTYEAILVRMLARVPETIDKREGSLIYDALAPGAAELAQAYAELVVNNNLSFADTASGEFLTRRAAEFGIKRKVATKAWRRGGFLDSNNALLNIPLGSRYSIGGLNYTAIEQISTGAYVLECETAGTAGNQQFGDLLPIAYVNSLARAELTEVLVPGEDEETDEALLSRYYETVNEPAFGGNMADYRQKVNAINGVGGTKVFPTWAGGGTVKCTIIASDWAKPSPELVNEVQSTMDPEENQGMGLGQAPIGHAVTIAGVDKVTVDVETTLTLAPGVTPGQVQSDVEAILDAYLLEQRKTWAAQTQIIIRMAQIDARMLTVQGVEDVTGTKLNGTEANFLLDEEEIPILGTVIINE", "soluble on expression in E. coli": "not soluble"}
{"sequence": "MPYIILEDQTRLYYETHGSGTPILFIHGVLMSGQFFHKQFSVLSANYQCIRLDLRGHGESDKVLHGHTISQYARDIREFLNAMELDHVVLAGWSMGAFVVWDYLNQFGNDNIQAAVIIDQSASDYQWEGWEHGPFDFDGLKTAMHAIQTDPLPFYESFIQNMFAEPPAETETEWMLAEILKQPAAISSTILFNQTAADYRGTLQNINVPALLCFGEDKKFFSTAAGEHLRSNIPNATLVTFPKSSHCPFLEEPDAFNSTLLSFLDGVIGKS", "soluble on expression in E. coli": "not soluble"}
{"sequence": "MGSDKIHHHHHHMDLEEQKKAVIEKLIREGYIKSKRVIDALLKVPREEFLPEHLKEYAYVDTPLEIGYGQTISAIHMVGMMCELLDLKPGMKVLEIGTGCGYHAAVTAEIVGEDGLVVSIERIPELAEKAERTLRKLGYDNVIVIVGDGTLGYEPLAPYDRIYTTAAGPKIPEPLIRQLKDGGKLLMPVGRYLQRLVLAEKRGDEIIIKDCGPVAFVPLVGKEGFQG", "soluble on expression in E. coli": "not soluble"}
{"sequence": "MVKVYGSTVDNESRCTHYQTPLDIIAIKFKCCNKYYPCYKCHNEHESHKIQRWQANEFHEKAILCGVCNHEMTINDYMMIEACPKCDAHFNNRCKYHYHLYFEILEHHHHHH", "soluble on expression in E. coli": "soluble"}
{"sequence": "MKLAARVESVSPSMTLIIDAKAKAMKAEGIDVCSFSAGEPDFNTPKHIVEAAKAALEQGKTRYGPAAGEPRLREAIAQKLQRDNGLCYGADNILVTNGGKQSIFNLMLAMIEPGDEVIIPAPFWVSYPEMVKLAEGTPVILPTTVETQFKVSPEQIRQAITPKTKLLVFNTPSNPTGMVYTPDEVRAIAQVAVEAGLWVLSDEIYEKILYDDAQHLSIGAASPEAYERSVVCSGFAKTYAMTGWRVGFLAGPVPLVKAATKIQGHSTSNVCTFAQYGAIAAYENSQDCVQEMLAAFAERRRYMLDALNAMPGLECPKPDGAFYMFPSIAKTGRSSLDFCSELLDQHQVATVPGAAFGADDCIRLSYATDLDTIKRGMERLEKFLHGIL", "soluble on expression in E. coli": "soluble"}
{"sequence": "MTIYNINFGIGWASSGVEYAQAYRAKLLRRTNQDTKFVFLDFIQSENIQTLTQNIGFKDQEVIWLYQYFSDISLAPTTYTLDDIERELGHDISFRERNGKIVRLYFNGKSSFVTCYLQNEQKDIVDRAEFVINSMLVRKDFYSYTRIFSEYYAPADNKAKLYMRQFYNQDGSIAYNEYIDGDSSIYVFEDAVLYNKTEFIAYFLQRLNLTRDDIVILDRASDIGQAVLQHKGDSKVGVVIHADHYSNNMMSEQHILWNNYYEYQFSKAKYIDFFITATDIQNHMVCRQFEQYQGYRPRVYTIPVGSIDALSYPTLSRKPYAMISASRLANEKHIDWLVKAVIVAKRQVPELTFDIYGEGSEKTRLRKIIDTHRAQDYIRLLGHVKLDEIYNDYELFLSASTSEGFGLTLMEAVGSGLGMIGLNVNYGNPTFIRDGENGYLVPFDTDEDSVDDVIAKLAHAIVMYFNNGPQTPHDISYEVAQQFMTQDIILKWETLVQEVLHD", "soluble on expression in E. coli": "not soluble"}
{"sequence": "MGSDKIHHHHHHMGSFALPANAQCEAKNDAFQSGEHVMYDLYFNWKFVWVKAGIASLTTNATTYHSEPAYRINLLALGSKRADFFFKMRDTLTCVMGEKLEPRYFRKGAEEGKRYTVDEAWFSYKDGLCFAKQKRTFRDGEVQESEESDSRCIYDMLTILAQARSYDPADYKVGDKIKFPMATGRKVEEQTLIYRGKENVKAENGVTYRCLIFSLVEYDKKGKEKEVITFFVTDDKNHLPVRLDMFLNFGSAKAFLNDVRGHRHPLTSIVK", "soluble on expression in E. coli": "not soluble"}
{"sequence": "GAMDPEFQQSKVAPSSAASRPVLSSRSDQSQKNEVFLDVVERLSVLIASNGSLLKVDVQGEIRLKSFLPSGSEMRIGLTEEFSVGKSELRGYGPGIRVDEVSFHSSVNLDEFESHRILRLQPPQGELTVMRYQLSDDLPSPLPFRLFPSVQWDRGSGRLQVYLKLRCDLLSKSQALNVRLHLPLPRGVVSLSQELSSPEQKAELAEGALRWDLPRVQGGSQLSGLFQMDVPGPPGPPSHGLSTSASPLGLGPASLSFELPRHTCSGLQVRFLRLAFRPSGNANPHKWVRHLSHSDAYVIRI", "soluble on expression in E. coli": "soluble"}
{"sequence": "GPGSMSFPKEWTDTWNLFDDRRSGSVTHSDVKHIIRSLGRRYTEAEFNELLHDIPDPIPYQSFVEIMQKPYNGPTEDDLRTALRAFDGNDSGQLKLSELITLLTSLGEKMPEAEVKQLLSEVHTNEDGRVNIDDLARFLCTPLPTTQPDIAELQKQLAGIS", "soluble on expression in E. coli": "soluble"}
{"sequence": "NIITVTLNMERHHFLGISIVGQSNDRGDGGIYIGSIMKGGAVAADGRIEPGDMLLQVNDVNFENMSNDDAVRVLREIVSQTGPISLTVAK", "soluble on expression in E. coli": "soluble"}
{"sequence": "MAHHHHHHMLEFLVTTQPSRRIVCRNEATYIYFWPYLFSREVPGALQLCRWAARRGAAVHGAVRLQPSETPNAAHRCYLTVTRPVAAGRTLISLPAALSLSVSSPESRKGTFIGRYSALESFAQLLARELHNPRSPHRAYLEFLHDLHNSGTDEVSDALLAGLRYERAAVLVDQLDAMYAGNSLQARGAANAPFLDKEQLTSASQRVEWVRLHQLQRRLEQGVPHFAAKSTAWALSMALSRAMEDDAEGLSLYPLIDFCAHSFEPNAYICVGEDERIAATRPVRWADSSGEPLLHVVTRRLLHAGEKVTLRWHWRPVKTTEDAEFWQMRFGYVPQSE", "soluble on expression in E. coli": "not soluble"}
